# Measurements reported in publication doi:10.1101/324400 (bioRxiv, 2018).
# B1: wild-type Eco RfaH, full length (natural protein)
# chain: MQSWYLLYCKRGQLQRAQEHLERQAVNCLAPMITLEKIVRGKRTAVSEPLFPNYLFVEFDPEVIHTTTINATRGVSHFVRFGASPAIVPSAVIHQLSVYKPKDIVDPATPYPGDKVIITEGAFEGFQAIFTEPDGEARSMLLLNLINKEIKHSVKNTEFRKL
# Tests used:
# [1] = target: Eco RNAP β subunit (in the opsEC) (E. coli, UniProt P0A8V2); assay: cryo-EM structure
# [2] = target: Eco RNAP β' subunit (in the opsEC) (E. coli, UniProt P0A8T7); assay: cryo-EM structure
# Chain of Eco RNAP β' subunit (in the opsEC) (P0A8T7 whole entry): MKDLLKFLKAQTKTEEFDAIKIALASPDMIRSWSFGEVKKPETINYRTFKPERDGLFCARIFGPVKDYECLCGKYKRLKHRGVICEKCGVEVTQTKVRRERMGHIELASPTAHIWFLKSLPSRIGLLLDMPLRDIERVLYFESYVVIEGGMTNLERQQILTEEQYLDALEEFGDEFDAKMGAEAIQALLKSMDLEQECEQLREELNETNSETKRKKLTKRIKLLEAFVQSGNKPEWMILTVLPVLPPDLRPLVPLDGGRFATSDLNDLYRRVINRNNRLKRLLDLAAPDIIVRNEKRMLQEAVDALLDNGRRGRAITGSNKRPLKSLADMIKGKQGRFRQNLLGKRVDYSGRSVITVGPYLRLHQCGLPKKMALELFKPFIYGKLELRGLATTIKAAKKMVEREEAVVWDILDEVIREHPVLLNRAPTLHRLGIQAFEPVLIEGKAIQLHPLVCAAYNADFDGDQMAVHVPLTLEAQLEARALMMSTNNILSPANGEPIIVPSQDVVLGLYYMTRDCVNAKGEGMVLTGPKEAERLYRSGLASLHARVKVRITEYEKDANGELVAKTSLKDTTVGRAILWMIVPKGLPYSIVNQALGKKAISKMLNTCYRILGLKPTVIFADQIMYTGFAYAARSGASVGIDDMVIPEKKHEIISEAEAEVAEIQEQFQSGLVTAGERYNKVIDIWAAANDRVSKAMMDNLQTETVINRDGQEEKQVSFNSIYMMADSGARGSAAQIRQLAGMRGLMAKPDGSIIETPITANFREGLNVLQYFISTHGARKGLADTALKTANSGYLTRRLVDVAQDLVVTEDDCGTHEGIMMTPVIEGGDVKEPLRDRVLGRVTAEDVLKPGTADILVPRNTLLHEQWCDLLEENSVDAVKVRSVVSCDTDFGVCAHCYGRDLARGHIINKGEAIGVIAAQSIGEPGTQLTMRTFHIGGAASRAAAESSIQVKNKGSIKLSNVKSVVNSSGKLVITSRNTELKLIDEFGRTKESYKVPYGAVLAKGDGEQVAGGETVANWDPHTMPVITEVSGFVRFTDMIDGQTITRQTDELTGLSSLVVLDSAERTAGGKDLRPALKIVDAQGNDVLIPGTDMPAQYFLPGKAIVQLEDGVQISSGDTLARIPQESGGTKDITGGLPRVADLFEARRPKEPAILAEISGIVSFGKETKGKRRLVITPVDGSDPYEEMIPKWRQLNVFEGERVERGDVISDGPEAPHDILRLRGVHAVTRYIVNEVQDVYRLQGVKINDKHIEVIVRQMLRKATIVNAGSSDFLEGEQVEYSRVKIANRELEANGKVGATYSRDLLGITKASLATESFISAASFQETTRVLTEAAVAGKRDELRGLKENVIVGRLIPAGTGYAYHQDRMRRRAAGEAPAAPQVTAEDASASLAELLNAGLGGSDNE
# Chain of Eco RNAP β subunit (in the opsEC) (P0A8V2 whole entry): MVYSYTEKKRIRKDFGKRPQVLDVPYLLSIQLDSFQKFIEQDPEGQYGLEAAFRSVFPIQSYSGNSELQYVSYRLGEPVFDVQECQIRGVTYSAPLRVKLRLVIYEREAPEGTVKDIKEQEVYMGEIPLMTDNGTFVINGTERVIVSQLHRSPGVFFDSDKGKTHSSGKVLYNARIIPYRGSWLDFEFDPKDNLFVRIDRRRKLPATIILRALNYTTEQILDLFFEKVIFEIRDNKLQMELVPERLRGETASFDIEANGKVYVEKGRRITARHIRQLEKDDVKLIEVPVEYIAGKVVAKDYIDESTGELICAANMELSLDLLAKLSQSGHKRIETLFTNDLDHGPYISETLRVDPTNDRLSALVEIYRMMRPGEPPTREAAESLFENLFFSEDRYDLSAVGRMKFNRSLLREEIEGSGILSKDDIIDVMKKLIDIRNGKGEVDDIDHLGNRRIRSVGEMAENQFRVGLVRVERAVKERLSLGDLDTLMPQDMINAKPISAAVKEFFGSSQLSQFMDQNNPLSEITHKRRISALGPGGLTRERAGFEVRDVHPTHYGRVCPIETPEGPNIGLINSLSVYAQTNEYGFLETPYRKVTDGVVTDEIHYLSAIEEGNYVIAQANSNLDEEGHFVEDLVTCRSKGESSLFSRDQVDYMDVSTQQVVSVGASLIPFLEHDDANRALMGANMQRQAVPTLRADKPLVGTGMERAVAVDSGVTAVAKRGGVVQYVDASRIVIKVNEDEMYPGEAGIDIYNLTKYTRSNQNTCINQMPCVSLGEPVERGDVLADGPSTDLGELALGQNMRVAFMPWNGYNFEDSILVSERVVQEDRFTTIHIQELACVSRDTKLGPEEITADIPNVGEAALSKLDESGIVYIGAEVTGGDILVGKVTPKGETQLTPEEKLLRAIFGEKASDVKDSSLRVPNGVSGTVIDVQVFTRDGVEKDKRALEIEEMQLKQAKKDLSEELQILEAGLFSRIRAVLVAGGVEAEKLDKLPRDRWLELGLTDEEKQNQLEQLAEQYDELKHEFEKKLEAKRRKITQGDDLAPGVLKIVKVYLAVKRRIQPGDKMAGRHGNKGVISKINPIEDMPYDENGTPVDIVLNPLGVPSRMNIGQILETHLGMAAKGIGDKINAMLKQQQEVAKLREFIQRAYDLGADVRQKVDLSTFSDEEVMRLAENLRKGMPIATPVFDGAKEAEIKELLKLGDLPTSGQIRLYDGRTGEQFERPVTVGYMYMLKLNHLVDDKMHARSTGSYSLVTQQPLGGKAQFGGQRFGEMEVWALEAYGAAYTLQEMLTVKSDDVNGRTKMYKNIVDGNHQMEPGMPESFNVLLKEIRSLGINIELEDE
binder,measurement,setting,value
B1,binding result,[1],binds
same,binding result,[2],binds
